According to article PMC10602183 (Research Square, 2023):

Assays:
[1] = molecular target: T1, gp120 derived from HIV-1 SF162, biotinylated (HIV-1 isolate SF162, UniProt P19550, strain, biotin (Lynx biotinylation kit)); test: flow cytometry on cells; HmAb64 blocking the staining of primary human CD4+ T cells by biotinylated gp120 (antibody and gp120 both purified proteins in solution); details: both partners purified
T1 construct: gp120 subunit of Env (cut product of gp160) of HIV-1 isolate SF162; also called SF162 gp120

[2] = molecular target: T2, wild type gp120 Env protein of HIV-1 YU2 (HIV-1 isolate YU2, UniProt P35961); test: ELISA; mAb64 against gp120, gp120-Core or their D368R mutant protein, as previously described; details: both partners purified
T2 construct: gp120 subunit of Env (cut product of gp160) of HIV-1 isolate YU2; The ELISA methods name gp120 and gp120-Core proteins; also called YU2 gp120

[3] = molecular target: T3, wild type gp120 Env protein of HIV-1 JR-FL (HIV-1 isolate JR-FL, UniProt Q75760, strain); test: as above; details: both partners purified
T3 construct: gp120 subunit of Env (cut product of gp160) of HIV-1 isolate JR-FL; The ELISA methods name gp120 and gp120-Core proteins; also called JR-FL gp120

A244 gp120 = molecular target: T4, A244 gp120 (HIV-1 isolate A244); test: SPR; Biacore 3000, CM4 or CM5 chips; gp120 or BG505-SOSIP amine-coupled to about 750 RU; HBS pH 7.4, 3 mM EDTA, 0.005% Tween-20, 0.05% carboxymethyl-dextran; 25 ul/min, 25 °C; details: both partners purified
T4 construct: gp120 subunit of Env (cut product of gp160) of HIV-1 isolate A244; also called gp120 protein from A244 viral isolate

[4] = molecular target: T5, HIV-1 SF162 Env on infected CD4+ T cells (HIV-1 isolate SF162, UniProt P19550, strain); test: flow cytometry on cells; primary human CD4+ T cells infected with HIV SF162 for 3 days, stained with HmAb64 (2 ug), goat anti-human-PE; uninfected cells as control; details: one partner purified
T5 construct: Env as the target follows from the antibody's specificity; also called HIV-1 on cell surface; SF162 infected CD4+ T cells; source: primary human CD4+ T cells infected with HIV SF162, on cells

Measured: binding result

B1: HmAb64 (antibody, V domains shown)
VH: QVQLVQSGAEVKKPGASVKVSCKASGYTFTSYDITWVRQAPGQGLEWMGWISAYNGDTNYAQRLQGRVTMTTDTSTSTAYMELRSLRSDDTAVYYCARAKHTVLVTAMRWFDPWGQGTLVTVSS
VL: DIQMTQSPSSLSASVGDRVTITCRASQSISNYLNWYQQKPGKAPKLLISATSSLQSGVPSRFSGSGSGTDFTLTISSLQPDDFATYYCQQSYSTPWTFGQGTKLEIK
notes: germline IGHV1-18*01, CDR H3 of 15 aa (Kabat); full-length human IgG heavy chain cloned from clone #64; germline IGKV1-39*01, CDR L3 of 9 aa (Kabat); kappa chain cloned from clone #64; Human IgG, kappa; also called clone #64; human IgG (HmAb64)
binds: all assays above
